According to paper PMC5450233:

B1: GST–SKIP(1-310), Q8IWE5 D220A; F221A; G222A (protein)
chain: MEPGEVKDRILENISLSVKKLQSYFAACEDEIPAIRNHDKVLQRLCEHLDHALLYGLQDLSSGYWVLVVHFTRREAIKQIEVLQHVATNLGRSRAWLYLALNENSLESYLRLFQENLGLLHKYYVKNALVCSHDHLTLFLTLVSGLEFIRFELDLDAPYLDLAPYMPDYYKPQYLLDFEDRLPSSVHGSDSLSLNSFNSVTSTNLEWDDSAIAPSSEDYAAADVFPAVPSVPSTDWEDGDLTDTVSGPRSTASDLTSSKASTRSPTQRQNPFNEEPAETVSSSDTTPVHTTSQEKEEAQALDPPDACTEL
B2: GST–SKIP(1-310), Q8IWE5 E217A; D218A; Y219A (protein)
chain: MEPGEVKDRILENISLSVKKLQSYFAACEDEIPAIRNHDKVLQRLCEHLDHALLYGLQDLSSGYWVLVVHFTRREAIKQIEVLQHVATNLGRSRAWLYLALNENSLESYLRLFQENLGLLHKYYVKNALVCSHDHLTLFLTLVSGLEFIRFELDLDAPYLDLAPYMPDYYKPQYLLDFEDRLPSSVHGSDSLSLNSFNSVTSTNLEWDDSAIAPSSAAADFGDVFPAVPSVPSTDWEDGDLTDTVSGPRSTASDLTSSKASTRSPTQRQNPFNEEPAETVSSSDTTPVHTTSQEKEEAQALDPPDACTEL
B3: GST–SKIP(1-310), Q8IWE5 W236A; E237A (protein)
chain: MEPGEVKDRILENISLSVKKLQSYFAACEDEIPAIRNHDKVLQRLCEHLDHALLYGLQDLSSGYWVLVVHFTRREAIKQIEVLQHVATNLGRSRAWLYLALNENSLESYLRLFQENLGLLHKYYVKNALVCSHDHLTLFLTLVSGLEFIRFELDLDAPYLDLAPYMPDYYKPQYLLDFEDRLPSSVHGSDSLSLNSFNSVTSTNLEWDDSAIAPSSEDYDFGDVFPAVPSVPSTDAADGDLTDTVSGPRSTASDLTSSKASTRSPTQRQNPFNEEPAETVSSSDTTPVHTTSQEKEEAQALDPPDACTEL
B4: GST–SKIP(1-310), Q8IWE5 D238A; G239A; D240A (protein)
chain: MEPGEVKDRILENISLSVKKLQSYFAACEDEIPAIRNHDKVLQRLCEHLDHALLYGLQDLSSGYWVLVVHFTRREAIKQIEVLQHVATNLGRSRAWLYLALNENSLESYLRLFQENLGLLHKYYVKNALVCSHDHLTLFLTLVSGLEFIRFELDLDAPYLDLAPYMPDYYKPQYLLDFEDRLPSSVHGSDSLSLNSFNSVTSTNLEWDDSAIAPSSEDYDFGDVFPAVPSVPSTDWEAAALTDTVSGPRSTASDLTSSKASTRSPTQRQNPFNEEPAETVSSSDTTPVHTTSQEKEEAQALDPPDACTEL

These binders were tested against HA–KLC2, O88448 (assay: GST pull-down, immunoblot (IB: HA) quantified). Conditions: chain shown with the change; lysates of 293T cells co-expressing HA-KHC and HA-KLC2 (kinesin-1 tetramer); three independent experiments; parent: est. 1.0; read off a plot.
Sequence of HA–KLC2, O88448 (O88448 whole entry): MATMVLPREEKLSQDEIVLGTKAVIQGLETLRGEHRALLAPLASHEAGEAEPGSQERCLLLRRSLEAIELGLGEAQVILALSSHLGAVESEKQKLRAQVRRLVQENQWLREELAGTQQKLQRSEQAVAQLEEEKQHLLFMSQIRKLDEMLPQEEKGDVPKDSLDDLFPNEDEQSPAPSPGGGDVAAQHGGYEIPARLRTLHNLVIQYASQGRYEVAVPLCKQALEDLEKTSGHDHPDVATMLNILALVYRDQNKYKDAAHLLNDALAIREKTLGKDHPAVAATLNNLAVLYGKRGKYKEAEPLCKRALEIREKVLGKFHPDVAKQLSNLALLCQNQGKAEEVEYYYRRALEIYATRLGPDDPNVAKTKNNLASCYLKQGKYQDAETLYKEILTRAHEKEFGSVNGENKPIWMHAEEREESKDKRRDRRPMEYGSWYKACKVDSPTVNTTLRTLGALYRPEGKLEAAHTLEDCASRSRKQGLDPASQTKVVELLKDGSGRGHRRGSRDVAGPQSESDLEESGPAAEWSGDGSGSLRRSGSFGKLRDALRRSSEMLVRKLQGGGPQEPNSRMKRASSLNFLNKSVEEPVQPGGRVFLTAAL

Binder	ratio to parent
B1	0.47
B2	0.63
B3	0.95
B4	0.89
